Paper PMC10576442, “Cullin‐associated and neddylation‐dissociated 1 regulate reprogramming of lipid metabolism through SKP1‐Cullin‐1‐F‐box^FBXO11‐mediated heterogeneous nuclear ribonucleoprotein A2/B1 ubiquitination and promote hepatocellular carcinoma” (Clinical and Translational Medicine, 2023)

Target: T1, HA-FBXO11 fusion protein expressed in E. coli (UniProt Q86XK2 1-927)
T1 construct: FBXO11 with an HA tag, expressed in E. coli; The methods of the GST pull-down speak of total cell lysates, the results of purified proteins from E. coli; source: E. coli, purified
T1 sequence (looked up): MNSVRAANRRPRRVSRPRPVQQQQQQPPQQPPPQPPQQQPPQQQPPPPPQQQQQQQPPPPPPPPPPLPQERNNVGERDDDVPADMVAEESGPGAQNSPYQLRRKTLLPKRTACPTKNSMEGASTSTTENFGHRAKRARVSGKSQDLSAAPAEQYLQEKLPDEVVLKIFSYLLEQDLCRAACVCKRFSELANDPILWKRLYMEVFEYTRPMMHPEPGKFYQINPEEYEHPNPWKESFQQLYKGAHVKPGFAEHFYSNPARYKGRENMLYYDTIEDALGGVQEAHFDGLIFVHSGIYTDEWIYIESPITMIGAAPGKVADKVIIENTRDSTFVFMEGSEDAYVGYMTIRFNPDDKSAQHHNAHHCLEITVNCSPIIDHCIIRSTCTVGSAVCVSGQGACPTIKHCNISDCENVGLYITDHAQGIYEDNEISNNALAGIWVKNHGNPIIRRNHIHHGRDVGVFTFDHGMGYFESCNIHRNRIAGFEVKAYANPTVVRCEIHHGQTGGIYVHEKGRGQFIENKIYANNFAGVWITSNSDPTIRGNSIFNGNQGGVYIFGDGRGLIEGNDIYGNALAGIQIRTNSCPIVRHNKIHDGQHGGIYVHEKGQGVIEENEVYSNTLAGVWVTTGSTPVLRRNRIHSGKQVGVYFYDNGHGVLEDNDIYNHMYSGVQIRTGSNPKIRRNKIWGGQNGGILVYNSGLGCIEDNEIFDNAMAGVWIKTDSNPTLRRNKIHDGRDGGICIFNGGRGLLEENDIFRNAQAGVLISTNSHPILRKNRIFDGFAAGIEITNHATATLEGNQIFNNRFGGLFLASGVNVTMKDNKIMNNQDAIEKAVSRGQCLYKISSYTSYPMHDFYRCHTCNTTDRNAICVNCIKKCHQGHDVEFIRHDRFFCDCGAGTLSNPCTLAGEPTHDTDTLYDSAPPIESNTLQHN
Assay: pull-down; GST pull-down (Magne GST pull-down system), GST-hnRNPA2B1 immobilised on magnetic beads, overnight at 4 °C, HA-FBXO11 expressed in E. coli, western blot
Details: both partners purified

binding result: binds
B1: GST-hnRNPA2B1 (natural protein, UniProt P22626 1-353, looked up)
chain: MEKTLETVPLERKKREKEQFRKLFIGGLSFETTEESLRNYYEQWGKLTDCVVMRDPASKRSRGFGFVTFSSMAEVDAAMAARPHSIDGRVVEPKRAVAREESGKPGAHVTVKKLFVGGIKEDTEEHHLRDYFEEYGKIDTIEIITDRQSGKKRGFGFVTFDDHDPVDKIVLQKYHTINGHNAEVRKALSRQEMQEVQSSRSGRGGNFGFGDSRGGGGNFGPGPGSNFRGGSDGYGSGRGFGDGYNGYGGGPGGGNFGGSPGYGGGRGGYGGGGPGYGNQGGGYGGGYDNYGGGNYGSGNYNDFGNYNQQPSNYGPMKSGNFGGSRNMGGPYGGGNYGPGGSGGSGGYGGRSRY
notes: hnRNPA2B1 as a GST fusion protein; source: E. coli BL21 (DE3), purified (GST-tag purification resin)
